In US10047131B2, “Peptides and combination of peptides for use in immunotherapy against ovarian cancer and other cancers” (immatics biotechnologies GmbH, priority 2015, dated 2018):

Target: HLA-A*02:01 (Homo sapiens, UniProt P04439, D140Y/D185E/D98H/E176V/E277Q/G131W/G231S/I119V/I121R/I166T/I218V/L300P/L318F/N151K/N90K/P208A/P217A/Q86G/Q94H/R138H/R169H/T345S)
Experiment: MHC binding assay (UV-ligand exchange, ELISA of exchange yield)
Settings: binding to HLA-A*02:01, UV-ligand exchange
Outline: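 Peptide–MHC complexes made by UV-ligand exchange, where a UV-cleavable peptide is replaced by the test peptide. Exchange yield measured by ELISA: complexes diluted 100-fold on streptavidin-coated plates, stabilized complexes detected with HRP anti-β2m, TMB read at 450 nm.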

| Peptide exchange (MHC class I binding score, peptide exchange yield) | Substance |
| --- | --- |
| “++” (≥20% = ++) | 374 (FLLQQHLISA; listed as Homo sapiens) [compound 374] |
| “++” (≥20% = ++) | 375 (SLTETIEGV; listed as Homo sapiens) [compound 375] |
| “++” (≥20% = ++) | 376 (AMFESSQNVLL; listed as Homo sapiens) [compound 376] |
| “++” (≥20% = ++) | 377 (FLLDSSASV; listed as Homo sapiens) [compound 377] |
| “+++” (≥50 = +++) | 378 (ALGYFVPYV; listed as Homo sapiens) [compound 378] |
| “++” (≥20% = ++) | 379 (IMEGTLTRV; listed as Homo sapiens) [compound 379] |
| “++” (≥20% = ++) | 380 (TLIEDEIATI; listed as Homo sapiens) [compound 380] |
| “++” (≥20% = ++) | 381 (FIDEAYVEV; listed as Homo sapiens) [compound 381] |
| “++” (≥20% = ++) | 382 (ALQNYIKEA; listed as Homo sapiens) [compound 382] |
| “+++” (≥50 = +++) | 383 (ALLELENSVTL; listed as Homo sapiens) [compound 383] |
| “+++” (≥50 = +++) | 384 (ILFANPNIFV; listed as Homo sapiens) [compound 384] |
| “++” (≥20% = ++) | 385 (SLLEQGLVEA; listed as Homo sapiens) [compound 385] |
| “+++” (≥50 = +++) | 386 (ILFRYPLTI; listed as Homo sapiens) [compound 386] |
| “++++” (≥75% = ++++) | 387 (ALFQATAEV; listed as Homo sapiens) [compound 387] |
| “+++” (≥50 = +++) | 388 (SLTIDGIRYV; listed as Homo sapiens) [compound 388] |
| “++” (≥20% = ++) | 389 (LLADVTHLL; listed as Homo sapiens) [compound 389] |
| “+++” (≥50 = +++) | 390 (ALFMKQIYL; listed as Homo sapiens) [compound 390] |
| “+++” (≥50 = +++) | 391 (YVYPQRLNFV; listed as Homo sapiens) [compound 391] |
| “++” (≥20% = ++) | 392 (ALLHPQGFEV; listed as Homo sapiens) [compound 392] |
| “++” (≥20% = ++) | 393 (GLLDTQTSQVLTA; listed as Homo sapiens) [compound 393] |
| “+++” (≥50 = +++) | 394 (LLAVIGGLVYL; listed as Homo sapiens) [compound 394] |
| “++++” (≥75% = ++++) | 395 (ALALGGIAVV; listed as Homo sapiens) [compound 395] |
| “+++” (≥50 = +++) | 396 (ALLPDLPAL; listed as Homo sapiens) [compound 396] |

| Peptide exchange (MHC class I binding score, peptide exchange yield) | Substance |
| --- | --- |
| “+++” (≥50 = +++) | 397 (YLFGERLLEC; listed as Homo sapiens) [compound 397] |
| “++” (≥20% = ++) | 398 (KLLEEDGTIITL; listed as Homo sapiens) [compound 398] |
| “+++” (≥50 = +++) | 399 (YLFEPLYHV; listed as Homo sapiens) [compound 399] |
| “++” (≥20% = ++) | 400 (SLLTEQDLWTV; listed as Homo sapiens) [compound 400] |
| “+++” (≥50 = +++) | 401 (ILLDDTGLAYI; listed as Homo sapiens) [compound 401] |
| “++” (≥20% = ++) | 402 (VLFSGALLGL; listed as Homo sapiens) [compound 402] |
| “++” (≥20% = ++) | 403 (KLYDRILRV; listed as Homo sapiens) [compound 403] |
| “++” (≥20% = ++) | 405 (ALYDVFLEV; listed as Homo sapiens) [compound 405] |
| “+++” (≥50 = +++) | 407 (YLMDLINFL; listed as Homo sapiens) [compound 407] |
| “++” (≥20% = ++) | 408 (VLDDSIYLV; listed as Homo sapiens) [compound 408] |
| “++” (≥20% = ++) | 409 (LLDAMNYHL; listed as Homo sapiens) [compound 409] |
| “++” (≥20% = ++) | 412 (YLDDLNEGVYI; listed as Homo sapiens) [compound 412] |
| “+++” (≥50 = +++) | 426 (RLADKSVLV; listed as Homo sapiens) [compound 426] |
| “+++” (≥50 = +++) | 427 (ALLPLSPYL; listed as Homo sapiens) [compound 427] |
| “++” (≥20% = ++) | 428 (KLGHTDILVGV; listed as Homo sapiens) [compound 428] |
| “++” (≥20% = ++) | 429 (GLVNDLARV; listed as Homo sapiens) [compound 429] |
| “+++” (≥50 = +++) | 430 (HLYSSIEHLTT; listed as Homo sapiens) [compound 430] |
| “++” (≥20% = ++) | 431 (SLVNVVPKL; listed as Homo sapiens) [compound 431] |
| “++” (≥20% = ++) | 432 (TLIEESAKV; listed as Homo sapiens) [compound 432] |
| “+++” (≥50 = +++) | 433 (AMLNEPWAV; listed as Homo sapiens) [compound 433] |
| “++” (≥20% = ++) | 434 (KVSNSGITRV; listed as Homo sapiens) [compound 434] |
| “+++” (≥50 = +++) | 436 (HLAEVSAEV; listed as Homo sapiens) [compound 436] |
| “+++” (≥50 = +++) | 437 (SMAPGLVIQAV; listed as Homo sapiens) [compound 437] |

| Peptide exchange (MHC class I binding score, peptide exchange yield) | Substance |
| --- | --- |
| “++++” (≥75% = ++++) | 438 (KLLPLAGLYL; listed as Homo sapiens) [compound 438] |
| “+++” (≥50 = +++) | 439 (YLLQEIYGI; listed as Homo sapiens) [compound 439] |
| “++” (≥20% = ++) | 440 (ALADGVTMQV; listed as Homo sapiens) [compound 440] |
| “+++” (≥50 = +++) | 441 (ALLENPKMEL; listed as Homo sapiens) [compound 441] |
| “+++” (≥50 = +++) | 442 (GLLGGGGVLGV; listed as Homo sapiens) [compound 442] |
| “+++” (≥50 = +++) | 443 (GLWEIENNPTV; listed as Homo sapiens) [compound 443] |
| “+++” (≥50 = +++) | 444 (GLLRDEALAEV; listed as Homo sapiens) [compound 444] |
| “+++” (≥50 = +++) | 446 (QLIPALAKV; listed as Homo sapiens) [compound 446] |
| “++” (≥20% = ++) | 447 (QLVPALAKV; listed as Homo sapiens) [compound 447] |
| “+++” (≥50 = +++) | 448 (NLLETKLQL; listed as Homo sapiens) [compound 448] |
| “+++” (≥50 = +++) | 449 (KLAEGLDIQL; listed as Homo sapiens) [compound 449] |
| “+++” (≥50 = +++) | 450 (FMIDASVHPTL; listed as Homo sapiens) [compound 450] |
| “++” (≥20% = ++) | 451 (LLLLDTVTMQV; listed as Homo sapiens) [compound 451] |
| “+++” (≥50 = +++) | 452 (ILLEHGADPNL; listed as Homo sapiens) [compound 452] |
| “++” (≥20% = ++) | 453 (KLLEATSAV; listed as Homo sapiens) [compound 453] |
| “+++” (≥50 = +++) | 454 (KLPPPPPQA; listed as Homo sapiens) [compound 454] |
| “++” (≥20% = ++) | 455 (SLLKEPQKVQL; listed as Homo sapiens) [compound 455] |
| “+++” (≥50 = +++) | 456 (LLIGHLERV; listed as Homo sapiens) [compound 456] |
| “+++” (≥50 = +++) | 457 (SLLPGNLVEKV; listed as Homo sapiens) [compound 457] |
| “++” (≥20% = ++) | 458 (SLIDKLYNI; listed as Homo sapiens) [compound 458] |
| “++” (≥20% = ++) | 459 (ALITEVVRL; listed as Homo sapiens) [compound 459] |
